Assay results as given in the RNAGym collection of RNA variant scans (doi:10.1073/pnas.2313332121).

B1: TPR t1 (parent)
chain: GACCAAUCUGCCCUCAGAGCUCGAGAACAUCUUCGGAUGCAGAGGAGGCAGGCUUCGGUGGCGCGAUAGCGCCAACGUCCUCAACCUCCAAUGCAUCCCACCACAUGAUGAUGCCUGAAGAGCCUUGGUUUUUUG

Variants of: B1
Assay: polymerase ribozyme fitness, log enrichment relative to wild type (log ratio); higher = more active; in vitro selection for triplet polymerase activity
Procedure, shortened: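 After PCR construction and transcription, each subunit's mutant library from a heterodimeric triplet polymerase ribozyme was annealed with a biotinylated primer, the partner subunit and triplets. Incubation was frozen, at −7 °C, and extended constructs were gel-excised, bound to streptavidin beads and amplified by RT-PCR, in one selection round done in triplicate. Fitness is the logarithm of a genotype's enrichment divided by that of the wild type, from inverse-variance-weighted replicate averages of Illumina-sequenced inputs and outputs. The base of the logarithm is 2, and genotypes needed ≥10 input reads and ≥1 read per output.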

Variant | polymerase ribozyme fitness (log ratio)
GACCAAUCUGCCCUCAGAGCUCGAGAACAUCUUCGGAUGCAGAGGAGGCAGGCUUCGGUGGCGCGAUAGCGCCAACGUCCUCAAACUCCAAUGAAUCCCACCACAUGAUGUUGCCUGAAGAGCCUUGGUUUUUUG [C85A C94A A111U] | -5.51
GACCAAUCUGCCCUCAGAGCUCGAGAACAUCUUCGGAUGCAGAGGGGGCAGGCUUCGGUGGCGCGAUAGGGCCAACGUCCUCAACCUCCAAUGUAUCCCACCACAUGAUGAUGCCUGAAGAGCCUUGGUUUUUUG [A46G C70G C94U] | -3.9
GACCAAUCUGCCCUCAGUGUUCGAGAACAUCUUCGGAUGCAGAGGAGGCCGGCUUCGGUGGCGCGAUAUCGCCAACGUCCUCAACCUCCAAUGCAUCCCACCACAUGAUGAUGCCUGAAGAGCCUUGGUUUUUUG [A18U C20U A50C G69U] | -1.33
GACCAAUCUGCCCUCAGAGCUCGAGAACAUCUUCGGAUGCAGAGGAGGCAGGCUUCGGUGGCGCGAUAGCUCCAACGUCCUCAACCUCCUAUGCAUCCCACCACAUGAUGAUGCCUGAAGAGCCUUGGUUUUUUG [G71U A90U] | -1.78
GACCAAUCUGCCCUCAGAGCCCGAGAACAUCUUCGGAUGCAAAGGAGGCAGGCUUCGGUGGCGCGAUAGCGCCAACGUCCUCAACCUUAAAUGCAUCCCACCACAUGAUGAUGCCUGAAGAGCCUUGGUUUUUUG [U21C G42A C88U C89A] | -3.87
GACCAAUCUGCCCUUACAGCUCGAGAACAUCUUCGGAUGCAGAGGAGGCAGGCUUCGGUGGCGCGAUAGCGACAACGUCCUCAACCUCCAAUGCAUCCCACCACAUGAUGAUGCCUGAAGCGCCUUGGUUUUUUG [C15U G17C C72A A121C] | -1.65
GACCAAUCUGCCCUCAGAGCUCGAGAACAUCUUCGGAUGCAGAGGAGGCAGGCUUCGGUGGCGCAAUAGCGCCAACGUCCUCAACCUCCAAUGCAUCCCACCACAUGAUGAUGCCUAAAGAGCCUUGGUUUUUUG [G65A G117A] | -4.47
GACCAAUCUGCCCUCAGAGCUCGAGAACAUCUUCGGAUGCAGAGGAGGCAGGAUUCGGUGGCGCGAUAGCGCCAACGUCCUCAACCUCCAAUGCAUCCCACCACAUGAUGAGGCCUGAAGAGCCUUGGUUUUUUG [C53A U112G] | -0.496
GACCAAUCUGCCCUCAGAGCUCGAGAACAUGUUCGGUUGCAGAGGAGGCAGGCUUCGGUGGCGCGAUAGCGCCAACGUCCUCAACCUCCAAUGCAUACCACCACAUGAUGAUGCCGGAAGAGCCUUGGUUUUUUG [C31G A37U C97A U116G] | -7.62
GACCAAUCUGCCCUCAGUGCUCGAGAGCAUCUUCGGAUGCAGAGGAGGCAGGCUUCGGUGGCGCGAUAGCGACAACGUCCUCAACCUCCAAUGCAUCCCACCACAUGAUGAUGCAUGAACAGCCUUGGUUUUUUG [A18U A27G C72A C115A G120C] | -3.08
GACCAAUCUGCCCUCAGAGCUCGAGACCAUCUUCGGAUGCAGAGGAGGCAGGCUUCGGUGGCGCGAUAGCGCCAACGUCCUCAACCUCCAAUGCAUCCCACCACAUGAUGAUGCCUGAAGAGCCUUGGUUUUUUG [A27C] | -2.85
GACCAAUCUGCCCUCAGAGCUCGAGAACAUCUUCGGAUGCAGAGGAGGCAGGCUUCGGUGGCGCGAUAUCGCCAACGUCCUCAACCUCCAAUGCAUCCCACCACAUGAUGAUGCCUGAAGAGCCUUGGUUUUUUU [G69U G135U] | -0.532
GACCAAUCUGCCCUCAGAGCUCGAGAACAUCUUCGGAUGCAGAGGAGGCAGGCUUCGGUGGCGCGAUAGCGCCAACGUCCUCAACCUCCAAUGCAUCCCACCACAUGAUGAUGCUUGAAGAGCCUUGGAUUUUUG [C115U U129A] | -3.34
GACCAAUCUGCCCUCAGAGCUCGAGAACAUCUUCGGAUGCAGAGGAGGCAGGCUUCGGUGGCUCGAUAGCGCCAACGUCCUCAAACUUCAAUGCAUCCCAGCACAUGAUGAUGCAUGAAGAGCAUUGGCUUUUUG [G63U C85A C88U C101G C115A C124A U129C] | -2.52
GACCAAUCUGCCCUCAGAGUUCGAGAACAUCUUCGGAUGCAGAGGAGGCAGGCUUCGGUGGCGCGAUAGCGCCAACGUCCUCGACCUCCAAUGCAUCCCACAACAUGAUGAUGCCUGAAGAGCCUUGGUUUUUUG [C20U A83G C102A] | -5.64
GACCAAUCUGCCCUCAGAGCUCGAGAACAUCUUCGGAUGCAGAGGAGGCAGGCUUCGGUGGCGCGAUACCGCCAACGUCCUCAACCUCCAAUGCAUCCCACCACAUGAUCAUGCCUGAAGAGCCUUGGUUUUUUG [G69C G110C] | -4.54
GACCAAUCUGCGCUCAGAGCUCGAGAACAUCUUCGGAUGCAGAGGAGGCAGGCUUCGGUGGCUCGGUAGCGCCAACGUCCUCAACCUCCAAUGCAUCCCACCACAUGAAGAUGCCUGAUGAGCCUUUGUUUUUUG [C12G G63U A66G U109A A119U G127U] | -5.43
GACCAAUCUGCCCUCAGAGCUCGAGAACAUCUUCGGAUGCAGAGGAGGCAGGCUUCGGUGGCGCGAUAGCGCCAACGUACUCAAACUCCAAUGCAUCCCACCACAUGAUGAUGCCUGAUGAGCCUUGGUUUUUUG [C79A C85A A119U] | -5.64
GACCAAUCUGCCCUUAGAGCUCGAGAACAUCUUCGGAUGCAGAGGAGGCAGGCUUCGGUGGCGCGAUAUCGCCAACGUCCUCAACCUCCAAUGCAUCCCACAACAUGAUGAUGCCUGAAGAGCCUUGGUUUUUUG [C15U G69U C102A] | -1.95
GACCAAUAUGCCCUCAGAGCUCGAGAACAUCUUCGGAUACAGAGGAGGCAGGCUUCGGUGGCGCGAUAGCGCCAACGUUCUCAACCUCCAAUGCAUCCCACCACAUGAUGAUGCCUGAAGAGCCUUGGUUUUUUG [C8A G39A C79U] | 0.0227
GACCAAUCUGCCCUCAGAGCUCGAGAACAUCUUCGGAUGCAGAGGAGGCAGGCUUCGGUGGCGCGAUAGCGCCAACGUCCUCAACCUCCAAUGCAUCUCACCACAUGAUGAUGCCUGAAGAGCCAUGGUUUUUUG [C98U U125A] | -1.46
